Results from patent US20230348603A1 (VERSEAU THERAPEUTICS, published 2023).
Numbering of substitutions follows the chain as printed. Names and notes keep the numbering of the source.

T1: Human VSIG4-L-His (human, UniProt Q9Y279 20-283)
T1 construct: long isoform ECD with His tag; also called hVSIG4-L
T1 sequence: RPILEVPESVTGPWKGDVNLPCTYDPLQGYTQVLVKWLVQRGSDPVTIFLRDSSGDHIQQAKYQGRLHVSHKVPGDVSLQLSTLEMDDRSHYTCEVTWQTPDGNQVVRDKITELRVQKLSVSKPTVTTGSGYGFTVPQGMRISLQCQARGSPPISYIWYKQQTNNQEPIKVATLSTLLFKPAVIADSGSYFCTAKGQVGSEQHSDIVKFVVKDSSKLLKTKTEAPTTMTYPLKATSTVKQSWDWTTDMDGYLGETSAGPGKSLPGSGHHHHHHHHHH

T2: Cynomolgus Monkey VSIG4-L-His (cynomolgus monkey)
T2 construct: ECD with His tag; also called cyVSIG4-L; cyno VSIG4-L-His
T2 chain: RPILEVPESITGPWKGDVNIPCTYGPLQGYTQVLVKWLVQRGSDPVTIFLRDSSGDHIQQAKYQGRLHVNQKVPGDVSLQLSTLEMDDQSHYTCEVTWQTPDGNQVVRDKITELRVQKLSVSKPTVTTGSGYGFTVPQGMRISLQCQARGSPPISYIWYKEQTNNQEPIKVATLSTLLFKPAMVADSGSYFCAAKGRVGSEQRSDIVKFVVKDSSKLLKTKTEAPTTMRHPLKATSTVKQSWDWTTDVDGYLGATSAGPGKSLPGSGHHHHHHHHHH

B1: h14C05.F humanized IgG4 (S228P) kappa (antibody, V domains shown)
VH: QVQLVQSGSELKKPGASVKVSCKASGYTFTNYGMNWVRQAPGQGLEWMGSINTYTGEATYADDFKGRFVFSLDTSVNTAYLQISSLKAEDTAVYYCARGDYYGRGTWFAYWGQGTLVTVSS
VL: ETQVTQSPSSLSASVGDRVTITCRASQDVSTAVAWYQQKPGKAPKLLIYSASYRYPGVPSRFSGSGSGTDFTLTISSLQPEDFATYYCQQDYSSPWTFGGGTKLEIKR
B2: h14C05.G humanized IgG4 (S228P) kappa (antibody, V domains shown)
VH: B1 VH with D62Q, D63G, K65T, N77S
VL: B1 VL
B3: h14C05.C humanized IgG4 (S228P) kappa (antibody, V domains shown)
VH: QVQLVQSGAEVKKPGASVKVSCKASGYTFTNYGMNWVRQAPGQGLEWMGSINTYTGEATYADKFQGRVTMTLDTSTNTAYMELSSLRSEDTAVYYCARGDYYGRGTWFAYWGQGTLVTVSS
VL: B1 VL
B4: h14C05.H humanized IgG4 (S228P) kappa (antibody, V domains shown)
VH: B3 VH with D62Q, N77S, A79V
VL: B1 VL
B5: h14C05.D humanized IgG4 (S228P) kappa (antibody, V domains shown)
VH: B1 VH with D63G, K65T
VL: ETVVTQSPATLSLSPGERATLSCRASQDVSTAVAWYQQKPGQAPRLLIYSASYRYPGIPARFSGSGSGTDFTLTISSLEPEDFAVYYCQQDYSSPWTFGGGTKLEIKR
B6: h14C05.E humanized IgG4 (S228P) kappa (antibody, V domains shown)
VH: B3 VH
VL: B5 VL
B7: h14D12.A humanized IgG4 (S228P) kappa (antibody, V domains shown)
VH: QIQLVQSGSELKKPGASVKVSCKASGYTFTNYGMNWVRQAPGQGLEWMGLINTYTGEPTYADGFTGRFVFSLDTSASTAYLQISSLKAEDTAVYFCARERIYGYLHYFDYWGQGTTVTVSS
VL: DVVMTQSPDSLAVSLGERATINCKASQSVDYDGDSYMNWYQQKPGQPPKLLIYAASNLESGVPDRFSGSGSGTDFTLTISSLQAEDVAVYYCQQSNEDPRTFGGGTKLEIKR
B8: h14D12.B humanized IgG4 (S228P) kappa (antibody, V domains shown)
VH: QIQLVQSGAEVKKPGASVKVSCKASGYTFTNYGMNWVRQAPGQGLEWMGLINTYTGEPTYADKFQGRVTMTLDTSTSTAYMELSSLRSEDTAVYYCARERIYGYLHYFDYWGQGTTVTVSS
VL: B7 VL
B9: h14D12.C humanized IgG4 (S228P) kappa (antibody, V domains shown)
VH: B8 VH with M70F, T76A, Y95F
VL: B7 VL with L58R
B10: h14D12.D humanized IgG4 (S228P) kappa (antibody)
heavy: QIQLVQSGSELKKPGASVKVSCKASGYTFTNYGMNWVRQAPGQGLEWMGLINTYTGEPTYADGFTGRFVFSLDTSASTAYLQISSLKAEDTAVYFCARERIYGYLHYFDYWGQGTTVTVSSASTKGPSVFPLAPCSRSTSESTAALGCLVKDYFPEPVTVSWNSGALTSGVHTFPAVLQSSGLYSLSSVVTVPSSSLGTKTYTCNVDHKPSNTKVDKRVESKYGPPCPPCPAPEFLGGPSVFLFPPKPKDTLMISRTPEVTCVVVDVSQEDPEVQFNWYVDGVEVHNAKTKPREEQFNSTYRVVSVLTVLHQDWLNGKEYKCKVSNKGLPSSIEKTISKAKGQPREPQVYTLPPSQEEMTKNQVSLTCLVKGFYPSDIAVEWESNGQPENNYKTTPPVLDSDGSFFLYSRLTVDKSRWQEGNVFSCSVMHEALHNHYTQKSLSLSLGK
light: DVQMTQSPSSLSASVGDRVTITCRASQSVDYDGDSYMNWYQQKPGKAPKLLIYAASNLESGVPSRFSGSGSGTDFTLTISSLQPEDFATYYCQQSNEDPRTFGGGTKLEIKRTVAAPSVFIFPPSDEQLKSGTASVVCLLNNFYPREAKVQWKVDNALQSGNSQESVTEQDSKDSTYSLSSTLTLSKADYEKHKVYACEVTHQGLSSPVTKSFNRGEC
B11: h14D12.E humanized IgG4 (S228P) kappa (antibody, V domains shown)
VH: B7 VH with A76V, F95Y
VL: DVQMTQSPSSLSASVGDRVTITCRASQSVDYDGDSYMNWYQQKPGKAPKLLIYAASNLESGVPSRFSGSGSGTDFTLTISSLQPEDFATYYCQQSNEDPRTFGGGTKLEIKR
B12: h14D12.G humanized IgG4 (S228P) kappa (antibody)
heavy: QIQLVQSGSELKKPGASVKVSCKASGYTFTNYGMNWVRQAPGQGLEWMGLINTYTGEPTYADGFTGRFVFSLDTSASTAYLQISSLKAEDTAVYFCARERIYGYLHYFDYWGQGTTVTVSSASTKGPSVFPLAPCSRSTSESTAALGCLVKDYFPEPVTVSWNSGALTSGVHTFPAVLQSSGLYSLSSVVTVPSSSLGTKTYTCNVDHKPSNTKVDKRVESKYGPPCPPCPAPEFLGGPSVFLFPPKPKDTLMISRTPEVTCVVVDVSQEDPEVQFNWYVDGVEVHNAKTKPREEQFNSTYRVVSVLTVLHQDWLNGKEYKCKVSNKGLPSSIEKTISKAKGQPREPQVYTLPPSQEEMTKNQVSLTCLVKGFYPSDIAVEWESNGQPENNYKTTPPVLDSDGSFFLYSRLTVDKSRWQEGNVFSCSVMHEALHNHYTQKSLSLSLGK
light: B10 light with V2I
B13: h14D12.F humanized IgG4 (S228P) kappa (antibody, V domains shown)
VH: B8 VH
VL: B11 VL
B14: h14D12.H humanized IgG4 (S228P) kappa (antibody, V domains shown)
VH: B8 VH with M70F, T76A, Y95F
VL: B11 VL with V2I
B15: h16E10.C humanized IgG4 (S228P) kappa (antibody, V domains shown)
VH: QVQLVQSGAEVKKPGASVKVSCKASGYTFTNYWLGWVRQAPGQGLEWMGDIYPGGGYTNYNEKFQGRVTMTADTSTSTAYMELSSLRSEDTAVYYCAKFYYYGSSYYFDSWGQGTTVTVSS
VL: DIVMTQSPDSLAVSLGERATINCKSSQSLLNSGNQENYLAWYQQKPGQPPKLLIYGASTRESGVPDRFSGSGSGTDFTLTISSLQAEDVAVYYCQNDHSYPLTFGGGTKLEIKR
B16: h16E10.D humanized IgG4 (S228P) kappa (antibody)
heavy: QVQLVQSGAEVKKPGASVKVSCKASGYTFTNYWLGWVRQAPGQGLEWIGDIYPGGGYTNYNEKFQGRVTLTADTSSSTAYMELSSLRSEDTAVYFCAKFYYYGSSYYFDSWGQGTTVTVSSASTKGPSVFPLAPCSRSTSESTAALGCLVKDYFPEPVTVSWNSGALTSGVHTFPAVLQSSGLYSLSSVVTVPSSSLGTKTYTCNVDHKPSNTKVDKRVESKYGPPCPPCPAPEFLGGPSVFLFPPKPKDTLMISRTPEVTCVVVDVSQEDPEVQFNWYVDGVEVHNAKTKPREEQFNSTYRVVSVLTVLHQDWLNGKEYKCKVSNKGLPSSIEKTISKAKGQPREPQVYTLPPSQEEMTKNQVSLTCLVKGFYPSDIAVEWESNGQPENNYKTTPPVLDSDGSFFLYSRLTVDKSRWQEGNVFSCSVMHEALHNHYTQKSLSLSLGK
light: DIVLTQSPLSLPVTPGEPASISCRSSQSLLNSGNQENYLAWYLQKPGQSPQLLIYGASTRESGVPDRFSGSGSGTDFTLKISRVEAEDVGVYYCQNDHSYPLTFGGGTKLEIKRTVAAPSVFIFPPSDEQLKSGTASVVCLLNNFYPREAKVQWKVDNALQSGNSQESVTEQDSKDSTYSLSSTLTLSKADYEKHKVYACEVTHQGLSSPVTKSFNRGEC
B17: h16E10.E humanized IgG4 (S228P) kappa (antibody)
heavy: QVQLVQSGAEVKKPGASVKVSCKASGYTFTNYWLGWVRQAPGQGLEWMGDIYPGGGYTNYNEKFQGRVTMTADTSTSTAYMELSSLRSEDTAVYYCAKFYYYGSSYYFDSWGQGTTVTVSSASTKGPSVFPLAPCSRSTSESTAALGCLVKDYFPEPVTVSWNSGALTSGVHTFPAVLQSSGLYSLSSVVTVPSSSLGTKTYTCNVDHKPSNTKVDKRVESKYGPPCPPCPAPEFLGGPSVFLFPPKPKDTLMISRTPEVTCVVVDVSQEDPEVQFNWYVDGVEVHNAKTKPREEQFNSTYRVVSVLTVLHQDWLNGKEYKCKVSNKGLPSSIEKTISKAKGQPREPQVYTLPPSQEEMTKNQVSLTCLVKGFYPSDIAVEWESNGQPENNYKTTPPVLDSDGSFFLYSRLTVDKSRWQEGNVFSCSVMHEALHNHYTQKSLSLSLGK
light: B16 light
B18: h16E10.F humanized IgG4 (S228P) kappa (antibody)
heavy: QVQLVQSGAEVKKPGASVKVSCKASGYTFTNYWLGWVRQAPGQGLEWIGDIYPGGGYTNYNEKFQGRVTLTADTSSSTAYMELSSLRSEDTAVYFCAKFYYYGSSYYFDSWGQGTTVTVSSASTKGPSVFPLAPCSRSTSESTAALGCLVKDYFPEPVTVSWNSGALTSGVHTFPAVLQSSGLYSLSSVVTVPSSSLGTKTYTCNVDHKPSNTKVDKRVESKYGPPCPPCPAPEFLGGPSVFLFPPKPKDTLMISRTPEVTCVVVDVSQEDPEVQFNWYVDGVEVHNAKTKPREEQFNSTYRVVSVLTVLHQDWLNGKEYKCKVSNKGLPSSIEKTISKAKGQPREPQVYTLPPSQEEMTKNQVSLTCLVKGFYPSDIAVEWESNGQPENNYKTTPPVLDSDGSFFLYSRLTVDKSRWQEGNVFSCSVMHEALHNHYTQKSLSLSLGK
light: B16 light with L4M
B19: h16E10.G humanized IgG4 (S228P) kappa (antibody)
heavy: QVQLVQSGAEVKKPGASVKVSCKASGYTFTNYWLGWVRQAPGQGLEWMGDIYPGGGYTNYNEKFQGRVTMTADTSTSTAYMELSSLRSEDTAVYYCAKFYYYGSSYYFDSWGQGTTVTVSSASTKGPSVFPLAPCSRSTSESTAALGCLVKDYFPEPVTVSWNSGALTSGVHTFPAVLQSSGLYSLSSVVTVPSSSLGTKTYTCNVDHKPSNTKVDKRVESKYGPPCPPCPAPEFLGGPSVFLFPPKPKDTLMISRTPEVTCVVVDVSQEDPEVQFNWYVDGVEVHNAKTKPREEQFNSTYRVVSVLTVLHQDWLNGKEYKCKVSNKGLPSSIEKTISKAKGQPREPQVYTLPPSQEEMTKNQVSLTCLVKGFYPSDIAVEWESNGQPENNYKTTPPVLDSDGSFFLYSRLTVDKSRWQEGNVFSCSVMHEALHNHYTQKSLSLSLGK
light: B16 light with L4M
B20: 1C6.D6 mouse/human chimeric IgG4 (S228P) kappa (antibody, V domains shown)
VH: QVQLQQPGAEMVRPGTSVKLSCKASGYTFTSYWMHWVKQRPGQGLEWIGKIDPSHNKTHYIQKFEDKATLTVDKSSSTAYMHLNSLTSEDSAVYYCVTWDGDFLYWGQGTLVTVSA
VL: NIVLTQSPASLTVSLGQRATISCRASESVDSYGNSFMHWYQQKPGQPPKLLIYITSNLQSGVPARFSGGGSRTDFTLTIDPVEADDAATYYCQQNNEDPWTFGGGTKLEIKR
notes: also called 1C6.D6b
B21: 1H7.C7 mouse/human chimeric IgG4 (S228P) kappa (antibody, V domains shown)
VH: EVQLVESGGGLVMPGGSRRLSCAASGFTFSDSGMYWVRQAPEKGLEWIAYISSGSDTLYYAATVKGRFTISRDNAKNTLFLQMTSLRSEDTAIYYCAKRNFYGYDVMDYWGQGTSVTVSS
VL: DIVMTQSHKFMSTSVGDRVSITCKASQDVSNVVAWYQQKPGQSPKLLIYSASYRYTGVPDRFAGSGSGTDFTFTISSVQAEDLAVYYCQQHYSTPWTFGGGTKLEIKR
B22: 5D2.C8 mouse/human chimeric IgG4 (S228P) kappa (antibody, V domains shown)
VH: EVKLVESGGGLVKPGGSLKLSCAVSGFTFSNSAMSWVRQTPAKRLEWVAYISISGDNTYYPDSVKGRFTISRDNAKNTLYLQMSSLRSEDTAMYYCARRGYDYDGFTHWGQGTLVTVSA
VL: DILLTQSPAILSVSPGERVSFSCRASQNIGTSIHWYQQRTNGSPRLLIKYASQSISGIPSRFSGSGSGTDFTLSINSVESEDIADYYCQQSYSWPLTFGTGTQLELKR

The binders below were run against T1, Human VSIG4-L-His (assay: BLI, IgG on AHC sensor, antigen 100 nM).

Binder	KD relative to parental chimera
B1	0.6 fold
B2	0.8 fold
B3	0.6 fold
B4	1 fold
B5	0.6 fold
B6	0.5 fold
B7	1.1 fold
B8	1 fold
B9	1.4 fold
B10	1 fold
B11	0.9 fold
B12	1 fold
B13	0.8 fold
B14	1.1 fold
B15	1.7 fold
B16	0.6 fold
B17	0.8 fold
B18	0.7 fold
B19	0.9 fold

Target: T2, Cynomolgus Monkey VSIG4-L-His
Test: BLI, IgG on AHC sensor, antigen 100 nM

Binder	KD relative to parental chimera
B1	0.7 fold
B2	0.7 fold
B3	0.6 fold
B4	0.9 fold
B5	0.5 fold
B6	0.3 fold
B7	1.2 fold
B8	1.3 fold
B9	1.5 fold
B10	1 fold
B11	0.9 fold
B12	1.1 fold
B13	1 fold
B14	1.2 fold
B15	1.1 fold
B16	1.1 fold
B17	1.3 fold
B18	1 fold
B19	0.4 fold

What follows are binders tested against T3, Human VSIG4-L-Fc (human) (assay: BLI cross-blocking on hVSIG4-L-Fc, competitor 14C05 first).
T3 construct: also called hVSIG4-L-Fc; hVSIG4-L
Target sequence in this assay (chain, as listed by the source limits assumed): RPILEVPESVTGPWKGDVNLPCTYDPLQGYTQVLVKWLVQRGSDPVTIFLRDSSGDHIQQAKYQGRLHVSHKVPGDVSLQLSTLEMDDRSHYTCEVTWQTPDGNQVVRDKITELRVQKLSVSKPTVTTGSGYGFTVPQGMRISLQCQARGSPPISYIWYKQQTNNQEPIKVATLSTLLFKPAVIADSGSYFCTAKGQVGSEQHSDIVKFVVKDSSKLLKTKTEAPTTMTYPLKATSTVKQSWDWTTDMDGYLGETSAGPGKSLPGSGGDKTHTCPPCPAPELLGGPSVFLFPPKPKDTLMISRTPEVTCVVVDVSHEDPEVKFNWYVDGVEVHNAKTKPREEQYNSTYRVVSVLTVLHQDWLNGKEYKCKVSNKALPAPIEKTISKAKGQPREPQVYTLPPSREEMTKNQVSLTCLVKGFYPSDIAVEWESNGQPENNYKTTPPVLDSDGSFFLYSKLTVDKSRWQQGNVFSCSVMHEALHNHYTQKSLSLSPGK
Method: (§1) All assay steps occurred at 30° C. with an acquisition rate of 5.0 Hz.

Binder	binding signal (nm shift)
B20	0.59 nm
B21	0.13 nm
B22	0.12 nm

The binders below were run against T3, Human VSIG4-L-Fc (assay: BLI cross-blocking on hVSIG4-L-Fc, competitor 12A12 first).
Method: as §1

Binder	binding signal (nm shift)
B20	0.08 nm
B21	0.08 nm
B22	0.07 nm
